In patent publication EP0980526B1, “INHIBITORS OF NUCLEAR PROTEIN/NUCLEAR RECEPTOR INTERACTION” (IMPERIAL CANCER RESEARCH TECHNOLOGY LIMITED, priority 1997, dated 1998):

Legend:
[1] = target: AAD-ER (acidic activation domain fused to the LBD of the wild-type ER) (human) (UniProt P03372); test: cell-based or functional assay
[2] = target: AAD-ER (acidic activation domain fused to the LBD of the wild-type ER) (human) (UniProt P03372); test: yeast two-hybrid
[3] = target: mouse ER (expressed in transfected Hela cells) (mouse) (UniProt P19785); test: cell-based or functional assay
Chain of mouse ER (expressed in transfected Hela cells) (mouse) (P19785 whole entry): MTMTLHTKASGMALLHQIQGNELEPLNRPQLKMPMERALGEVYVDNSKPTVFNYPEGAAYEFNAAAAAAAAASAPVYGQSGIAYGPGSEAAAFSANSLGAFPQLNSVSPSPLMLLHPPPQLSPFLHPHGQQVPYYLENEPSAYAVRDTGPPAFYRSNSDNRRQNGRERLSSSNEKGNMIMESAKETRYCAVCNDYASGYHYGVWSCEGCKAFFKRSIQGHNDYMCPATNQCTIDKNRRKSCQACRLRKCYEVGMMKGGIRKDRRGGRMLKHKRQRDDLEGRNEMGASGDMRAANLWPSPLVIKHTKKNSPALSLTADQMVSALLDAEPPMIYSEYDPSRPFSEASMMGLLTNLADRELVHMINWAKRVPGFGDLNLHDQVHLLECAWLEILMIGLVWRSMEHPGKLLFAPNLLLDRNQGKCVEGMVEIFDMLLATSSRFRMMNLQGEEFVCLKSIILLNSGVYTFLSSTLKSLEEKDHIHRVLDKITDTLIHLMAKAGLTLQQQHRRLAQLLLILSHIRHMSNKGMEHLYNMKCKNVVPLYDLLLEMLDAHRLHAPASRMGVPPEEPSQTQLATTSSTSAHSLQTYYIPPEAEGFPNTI

Chain of AAD-ER (acidic activation domain fused to the LBD of the wild-type ER) (human) (P03372 282-595 limits assumed): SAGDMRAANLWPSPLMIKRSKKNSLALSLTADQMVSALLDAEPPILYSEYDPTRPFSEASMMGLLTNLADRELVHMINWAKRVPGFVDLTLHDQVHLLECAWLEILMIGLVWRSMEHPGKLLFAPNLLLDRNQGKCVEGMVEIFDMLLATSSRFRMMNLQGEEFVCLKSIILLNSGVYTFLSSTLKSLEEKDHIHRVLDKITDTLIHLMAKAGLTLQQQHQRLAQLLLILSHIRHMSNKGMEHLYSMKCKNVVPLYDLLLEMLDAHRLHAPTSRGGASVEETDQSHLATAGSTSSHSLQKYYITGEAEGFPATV
Chain of DBD-SRC1a 45-53 (P03372 176-282, form in doubt): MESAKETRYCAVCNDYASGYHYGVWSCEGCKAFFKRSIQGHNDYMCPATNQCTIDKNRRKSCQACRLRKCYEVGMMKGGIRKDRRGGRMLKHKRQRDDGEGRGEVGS

DBD-RIP140 935-943 with valine 935 mutated to alanine (from UniProt P03372 176-282; P48552 935-943)
reporter activity in the presence of ligand (β-galactosidase, yeast two hybrid) (fold reduction) [1]: 10

DBD-SRC1a 45-53 (from UniProt P03372 176-282)
fold interaction (two-hybrid reporter) [2]: 6 fold

SRC1e M123 (from UniProt Q15788 1-1399)
activity of ER on the reporter 2ERE-pS2-CAT in transiently transfected Hela cells [3]: < 50%
